Assay results: US20230094463

Biological target: Human Galectin-3 protein (Acro Biosystems, GA3-H5129)
Test: blocking ELISA (Gal3 coated; antibody 3 µg/mL + INSR)

B1: 15G7.2A7 (protein)
chain 1: EVQLQQSGPELVKPGASVKISCKASGYTFTDYYMNWVKQSHGKSLEWIGDINPNNGGTNYNQKFKGKATLTVDKSSSTAYMELRSLTSEDSAVYYCTSGYGFPYWGQGTLVTVSA
chain 2: DIQMNQSPSSLSASLGDTISITCRASQNINIWLSWYQQKPGNIPQLLIYKASNLHTGVPSRFSGSGSGTDFTLTISSLQPEDIATYYCLQGQSYPLTFGAGTKLVMK
reduction of Gal3-INSR assembly (%): reduced assembly of Gal3 and INSR by greater than 99% at 3 µg/mL
